Laboratory results from patent publication US20100092561A1 (published 2010).
Starred links: 1 amine or outer side, 2 acyl side, 3 side chain; linkers in the order of their positions; H or OH if unused. Non-standard residues stand in square brackets, D forms with d. No end group written: not given here. βMeF(S) = S-β-methyl-L-phenylalanine, (2S,3S)-β-methylphenylalanine, C[C@@H](c1ccccc1)[C@H](N[*:1])C(=O)[*:2]; Phe(3R-Me) = C[C@H](c1ccccc1)[C@H](N)C(=O)O

Molecular target: NK1 receptor (rabbit)
Experiment: cell-based or functional assay

## RPKPQQ[Phe(3R-Me)][Phe(3R-Me)]GLM (not fully specified (C-terminus); ends and bridges not checked) [7R,8R-(βMeF)2SP]
  biological activity relative to SP (rabbit iris sphincter contraction): 10 fold reduction
  concentration at half maximal contraction (EC50), rabbit iris sphincter muscle: 10 nM

## RPKPQQF[Phe(3R-Me)]GLM (not fully specified (C-terminus); ends and bridges not checked) [8R-(βMeF)SP]
  biological activity relative to SP (rabbit iris sphincter contraction): 4 fold enhancement
  concentration at half maximal contraction (EC50), rabbit iris sphincter muscle: 0.15 nM

## RPKPQQF[βMeF(S)]GLM (not fully specified (C-terminus); ends and bridges not checked) [8S-(βMeF)SP]
  biological activity relative to SP (rabbit iris sphincter contraction): 10 fold reduction
